Results: PMC10082768

Tests used:
[1] = target: MUC2-C, the C-terminal part of the human MUC2 mucin, fully glycosylated (human); experiment: polyacrylamide gel electrophoresis, non-reduced against reduced; purified MUC2-C; band of around 300 kDa non-reduced, about 150 kDa after reduction
[2] = target: MUC2-C, the C-terminal part of the human MUC2 mucin, fully glycosylated (human); experiment: SEC-SAXS; 25 °C; 25 mM HEPES pH 7.4, 100 mM NaCl, 10 mM CaCl2; beamline BM29, ESRF

stoichiometry N [1]: 2
stoichiometry N [2]: 2
Substance: MUC2-C, the C-terminal part of the human MUC2 mucin, fully glycosylated (domain or fragment)
